Measured values: the supplement of paper PMC9112550, “Optimization of the antimicrobial peptide Bac7 by deep mutational scanning” (BMC Biology, 2022)

Tested on: Escherichia coli TOP10
Assay: shrunken log2 fold change of peptide-encoding DNA abundance (4.5 h post-induction vs induction); higher = less antimicrobial activity (less host growth inhibition)
Details: time post-induction: 4.5 h; library: site-saturation at positions 5, 18, 19, 20
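Also: peptides expressed intracellularly from a pBAD plasmid library in pooled LB shake-flask culture, induced with 0.3% L-arabinose, DNA abundance read by NGS, three biological replicates, DESeq2 with apeglm shrinkage.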

| Sequence | shrunken log2 fold change |
| --- | --- |
| RRIRLRPPRLPRPRPRPPRRPRP | 0.746 |
| RRIRCRPPRLPRPRPRPLSQPRP | 0.0133 |
| RRIRDRPPRLPRPRPRPRHAPRP | 0.324 |
| RRIRWRPPRLPRPRPRPRHIPRP | -0.0148 |
| RRIRHRPPRLPRPRPRPSMTPRP | 0.0628 |
| RRIRTRPPRLPRPRPRPMVAPRP | 0.0166 |
| RRIRKRPPRLPRPRPRPNLLPRP | -0.263 |
| RRIRDRPPRLPRPRPRPDQLPRP | 0.0963 |
| RRIRKRPPRLPRPRPRPNFAPRP | 0.155 |
| RRIRSRPPRLPRPRPRPAWPPRP | 0.49 |
| RRIRCRPPRLPRPRPRPSKTPRP | -0.0722 |
| RRIRPRPPRLPRPRPRPWNWPRP | 0.3 |
| RRIRKRPPRLPRPRPRPWRTPRP | 0.379 |
| RRIRKRPPRLPRPRPRPYFPPRP | -0.348 |
| RRIRQRPPRLPRPRPRPYWPPRP | -0.11 |
| RRIRTRPPRLPRPRPRPSDDPRP | -0.182 |
| RRIRYRPPRLPRPRPRPRDYPRP | -1.39 |
| RRIRTRPPRLPRPRPRPFSPPRP | -0.375 |
| RRIRVRPPRLPRPRPRPFKWPRP | 0.00238 |
| RRIRRRPPRLPRPRPRPLRGPRP | 0.732 |
| RRIRFRPPRLPRPRPRPNVLPRP | -0.323 |
| RRIRCRPPRLPRPRPRPEHEPRP | 0.188 |
| RRIRLRPPRLPRPRPRPDQVPRP | 0.0207 |

| Sequence | shrunken log2 fold change |
| --- | --- |
| RRIRARPPRLPRPRPRPECHPRP | 1.38 |
| RRIRPRPPRLPRPRPRPRMSPRP | 0.232 |
| RRIRARPPRLPRPRPRPGIHPRP | 0.37 |
| RRIRLRPPRLPRPRPRPEYKPRP | -0.438 |
| RRIRVRPPRLPRPRPRPNEAPRP | -0.0128 |
| RRIRARPPRLPRPRPRPVYSPRP | -0.312 |
| RRIRGRPPRLPRPRPRPYKHPRP | -0.463 |
| RRIRQRPPRLPRPRPRPRMCPRP | 0.0318 |
| RRIRIRPPRLPRPRPRPVSIPRP | -0.624 |
| RRIRDRPPRLPRPRPRPYTLPRP | -0.153 |
| RRIRGRPPRLPRPRPRPYHEPRP | 0.182 |
| RRIRGRPPRLPRPRPRPCCKPRP | -0.108 |
| RRIRMRPPRLPRPRPRPWQEPRP | -0.107 |
| RRIRVRPPRLPRPRPRPDLMPRP | -0.00839 |
| RRIRNRPPRLPRPRPRPRALPRP | 0.117 |
| RRIRARPPRLPRPRPRPYGLPRP | 0.0316 |
| RRIRIRPPRLPRPRPRPDTAPRP | -0.232 |
| RRIRWRPPRLPRPRPRPNCFPRP | -0.0571 |
| RRIRCRPPRLPRPRPRPQSEPRP | -0.398 |
| RRIRVRPPRLPRPRPRPRACPRP | 0.274 |
| RRIRMRPPRLPRPRPRPENTPRP | 0.427 |
| RRIRFRPPRLPRPRPRPMHYPRP | -0.0476 |
| RRIRNRPPRLPRPRPRPPKGPRP | 0.112 |

| Sequence | shrunken log2 fold change |
| --- | --- |
| RRIRVRPPRLPRPRPRPHKPPRP | -0.0132 |
| RRIRCRPPRLPRPRPRPTYIPRP | -0.959 |
| RRIRNRPPRLPRPRPRPSRHPRP | -0.061 |
| RRIRFRPPRLPRPRPRPQNIPRP | -0.411 |
| RRIRMRPPRLPRPRPRPDDFPRP | 0.938 |
| RRIRTRPPRLPRPRPRPMVHPRP | -0.00211 |
| RRIRRRPPRLPRPRPRPYAHPRP | 0.082 |
| RRIRSRPPRLPRPRPRPNGLPRP | -0.0247 |
| RRIRTRPPRLPRPRPRPEGVPRP | 0.122 |
| RRIRYRPPRLPRPRPRPYPTPRP | -0.282 |
| RRIRPRPPRLPRPRPRPFDQPRP | -0.295 |
| RRIRHRPPRLPRPRPRPVYWPRP | -0.262 |
| RRIRSRPPRLPRPRPRPPNAPRP | 0.0817 |
| RRIRARPPRLPRPRPRPRLHPRP | 0.376 |
| RRIRYRPPRLPRPRPRPASPPRP | -0.161 |
| RRIRLRPPRLPRPRPRPGEVPRP | 0.117 |
| RRIRPRPPRLPRPRPRPWTAPRP | -0.305 |
| RRIRPRPPRLPRPRPRPWNNPRP | -0.561 |
| RRIRRRPPRLPRPRPRPCGSPRP | 0.0143 |
| RRIRRRPPRLPRPRPRPPACPRP | 0.619 |
| RRIRIRPPRLPRPRPRPTGGPRP | -0.00471 |
| RRIRARPPRLPRPRPRPSQIPRP | 0.0409 |
| RRIRRRPPRLPRPRPRPSQGPRP | 0.0642 |

| Sequence | shrunken log2 fold change |
| --- | --- |
| RRIRMRPPRLPRPRPRPRIVPRP | 0.16 |
| RRIRPRPPRLPRPRPRPEKKPRP | -0.044 |
| RRIRKRPPRLPRPRPRPHENPRP | -0.00978 |
| RRIRPRPPRLPRPRPRPTNRPRP | -0.104 |
| RRIRKRPPRLPRPRPRPWVVPRP | 0.423 |
| RRIRDRPPRLPRPRPRPVVKPRP | 0.0734 |
| RRIRKRPPRLPRPRPRPAHMPRP | 0.686 |
| RRIRSRPPRLPRPRPRPHEPPRP | -0.154 |
| RRIRMRPPRLPRPRPRPFIWPRP | 0.0163 |
| RRIRYRPPRLPRPRPRPKKAPRP | -0.0344 |
| RRIRWRPPRLPRPRPRPTIDPRP | -0.0862 |
| RRIRNRPPRLPRPRPRPRQKPRP | -0.0544 |
| RRIRARPPRLPRPRPRPQDCPRP | 0.0638 |
| RRIRYRPPRLPRPRPRPGNHPRP | -0.064 |
| RRIRRRPPRLPRPRPRPEMHPRP | 0.705 |
| RRIRYRPPRLPRPRPRPTIDPRP | -0.271 |
| RRIRERPPRLPRPRPRPYKPPRP | -0.116 |
| RRIRSRPPRLPRPRPRPLFDPRP | -0.335 |
| RRIRTRPPRLPRPRPRPGTYPRP | 0.0862 |
| RRIRMRPPRLPRPRPRPTMNPRP | 0.0381 |
| RRIRLRPPRLPRPRPRPKPSPRP | 0.432 |
| RRIRSRPPRLPRPRPRPYKIPRP | -0.846 |
